Measured values as given in the supplement of paper PMC12636428.

These sequences were tested on Saccharomyces cerevisiae (assay: transcriptional activation domain activity (GFP:mCherry ratio, weighted mean of sorted bins, harmonized to initial dataset scale) (arbitrary fluorescence ratio units); higher = stronger transcriptional activation). Details: beta-estradiol 1 µM; induction time 4 h.
How it was run: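 Values are activation activity, found as the read-weighted mean of bin median fluorescence, averaged across barcodes and then mapped linearly onto the initial dataset scale. Barcoded protein tiles fused to an estradiol-inducible synthetic transcription factor were integrated at the URA3 locus of GFP-reporter yeast diploids. Cells were induced for 4 hours at 30 °C with 1 uM beta-estradiol in SC, sorted into 8 bins by GFP:mCherry ratio, and barcode-sequenced, with tiles under 50 reads discarded.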

Going from “VAPLLLAGACCIAHHFMLVFLEGCTVQSEFWIRNANSAFSLLISALLASCVGT” to “KLHQQAKSDFDELQESIPHQVGFSTPQLTAQQLIENAIESGVVDLETLDLPPF”, the “transcriptional activation domain activity” value rises from 77100 to 112000.

First: KAGKKKYVESVNGRRREVLVIVGKDGKTKRKTRWLDPESAATETGVPWGLEVP
Second: MREYIRFYFDTLHSSRVFVVWLLTHVLFLEKDRLKAMFAKDEFNGIEEIKMRY
The “transcriptional activation domain activity” value of the first is higher: 28800 for the first, 24900 for the second.

Compared with “VRSLTLEIYFNWLQIIFDSKLQDEFSKLLNYNLITKVDLIINLLESIALRFSD”, “MEWLLHTVYVVAIKDTRAWGGFSPFQMSMVGYFNLKLIWLKLLIIWRFFRLWA” is higher in “transcriptional activation domain activity” value: 51000 for the first, 76000 for the second.

First: LHFMYVVAIKDRKAWVGYSAAELCMVGFWNLIVVWLKLLVPWRFFRLWALADG
Second: LGGLSRERFFVYVFTSAFLWYFFPGYLFLALSWFSWVTWIWPDDPVVSQLFGY
The “transcriptional activation domain activity” value of the first is higher: 61900 for the first, 39500 for the second.

First: RRRKSNSTKPGNAGSKPAKKNKGANSNERERESKEVDEDEDEGNGGGEGEGEE
Second: VLLLLYLAFRAQTIEISIPKAKFCCYDTRVRILVPSRGYRSTYMCRISLLLGC
The “transcriptional activation domain activity” value of the first is lower: 8620 for the first, 19900 for the second.

Compared with “QQTGKGKIHRQYALVVVGNGDGLVGYGEGKDEELPRASDKAFAAAVRNMDHVE”, “VFLFLLTYFTIDIGLTNLPPLVIITVYLPHPPPLPDILLYWVLFLCCAVWGAV” is lower in “transcriptional activation domain activity” value: 43700 for the first, 39800 for the second.

First: MVVFLFSFRVWVLLWICKISFINFVPMSTCRGLMVVRLRLNQTWGIRSLVPWL
Second: EAARKETDAEGVRKTKVKKSRKRKAPEDGLEADEEGAARRTARARKTPAEAEA
The “transcriptional activation domain activity” value of the first is higher: 29600 for the first, 28700 for the second.

Going from “RNEGEARKGEGGRMRVVGIRQRAEGKTRRRGRKRERGREGSERRGEGGGREQG” to “RSAPGGRAGGRDGGSSSSSSDSSDEERETDGPVRKRRRTATSGARKAAPKSRP”, the “transcriptional activation domain activity” value rises from under 6570 to 29200.

Compared with “LRWVLLPLCLFFSVCLEAHWPSISLAIVIIAYNELHMSSHWFLRGFCYAWGNA”, “LNRWQKLLSWDVAYQIEGMLRRLLVDVKEMLSLMARIRAMILRYDSHYTAAFL” is higher in “transcriptional activation domain activity” value: 36800 for the first, 71500 for the second.

First: EAPKPAPEQPKPKPVQEKPAAPAAETKEKGKAAPEPEAEDKKPARRPRKAKQP
Second: ALVRCCLSKVVYVALEFISICTMPESAKGVINLIDNLSPYARKDLVHLRGWVC
The “transcriptional activation domain activity” value of the first is lower: 8950 for the first, 51800 for the second.

Going from “NQLAEAHALALLHLEQRLNIAIELPIQKFILSHLPWLMPVLAKIYLSHIIVGV” to “SICCALQDWYDYFSTLSYQDTLKSNIWYSLAETEYYWLHLLLFLPHLKRYLTR”, the “transcriptional activation domain activity” value falls from 57100 to 47600.

First: KPPCVWCRAVGTAASMLSNLLANGLLAFQCHMGWSIVYIAALLCIIYATTLSL
Second: MITYIILLLFFLLYYSIILFTSFSFSFFITFILHTITTLPVFILSCCSTFFFF
The “transcriptional activation domain activity” value of the first is lower: 38300 for the first, 66600 for the second.

Compared with “TPGGSSGGTGAAVASSFSVFGTGTDTVNSLRSPASANSLFSCRPTRGLITRNG”, “FRRYKGPGREDEETDDEDEVRPRRPMEMKKRVLHLLTTEITINTTLYGDFTAF” is lower in “transcriptional activation domain activity” value: 58000 for the first, 27700 for the second.

First: AKAEAKTTKTAKKPTLEKKATTSKATTAKKPAAKPATKAKETKAAKEPKAKAA
Second: MALFLSIFLLFFFLLYLSQITHFHGILFCFFLLCAPCLYIPDSCNPLIQPLFP
The “transcriptional activation domain activity” value of the first is higher: 40800 for the first, 35300 for the second.

Compared with “TSTKKTTTTKKATSTKSATATSSCTKYTVKKGDTCSSIASKVGGTTAAKIISK”, “LILEPPPAGGADGGPPTRSVPSSALRVGDLVLLEKNQRVPADCVLLRTSDAAG” is higher in “transcriptional activation domain activity” value: 34000 for the first, 58800 for the second.

First: MSLAHGHLFNRLQAVGPWDSLCCMGCDLSTLYLAALHSPWRVSWWRFLILGLL
Second: QPPPPPGRKRKKAENGEPSTPAEPRRLRRSHEACARCRSKKIKVSTQASAVIL
The “transcriptional activation domain activity” value of the first is higher: 58200 for the first, 53600 for the second.

Going from “VYILSFYLPSLFPSFFTHSLFFFLHLWSCSTSSQTNMRLPTLAFISLPFVLTF” to “SFHAFFFLYLPCCLFFYFCIVLVLVLVGYWCLVFFFIVFGSFPPPLLSKYLHL”, the “transcriptional activation domain activity” value falls from 53600 to 46200.

First: TPKKAKKSAERVDDSDASDDGDGYGGGGGEDGRKRAAKPKKGKRAAAGGGSAG
Second: PGLILVYSHLNLLLRNHADLEMIYIIGPGHGAPAALAALWLEGSLERFYPGEY
The “transcriptional activation domain activity” value of the first is lower: 26200 for the first, 31000 for the second.

Compared with “SASAAAKPAAAPLKKSTSGSLASKPAMSSTKPAAAPAAAPARRASVVPAKSSA”, “MTSPPPPSITVSHLALVPFFRTPVSAYSLLFLLFFRLGLCLSCWLFLLFSFLF” is higher in “transcriptional activation domain activity” value: 33900 for the first, 65800 for the second.

First: AYPTAAAVAPSTPKGKQRDVADELADLSVSKSSGSASKAKAKGSSPAAAKAAA
Second: RQQDSSQSDRDSSRDSRTRDARHHSRRDGERRQRAESNGNLRPAEESRRGRSE
The “transcriptional activation domain activity” value of the first is lower: 14900 for the first, 25400 for the second.

Going from “EKTKRKKKSATGATKRAGSGEAKPKRQRKKKGRRGESGDEEESGDEEGAERRA” to “KSVLCDLVFTMFADLRDPSVSRRFATVDDLELWFSTTLIKALRHLVALFTEYY”, the “transcriptional activation domain activity” value rises from under 6570 to 50400.
